± gives the standard deviation of the averaged measurements.
Test: total protein half-life in vivo (active degradation + dilution); higher = more stable protein
[1] = E. coli NCM3722 delta-clpP delta-lon delta-hslV, growth: N-lim chemostat, doubling time 6 h
[2] = E. coli NCM3722 delta-smpB, growth: N-lim chemostat, doubling time 6 h
[3] = wild type E. coli NCM3722, growth: C-lim chemostat, doubling time 3 h
[4] = wild type E. coli NCM3722, growth: C-lim chemostat, doubling time 6 h
[5] = wild type E. coli NCM3722, growth: C-lim chemostat, doubling time 12 h
[6] = wild type E. coli NCM3722, growth: N-lim chemostat, doubling time 6 h
[7] = wild type E. coli NCM3722, growth: P-lim chemostat, doubling time 6 h
[8] = E. coli NCM3722 delta-clpP, growth: N-lim chemostat, doubling time 6 h
[9] = E. coli NCM3722 delta-hslV, growth: N-lim chemostat, doubling time 6 h
[10] = E. coli NCM3722 delta-lon, growth: N-lim chemostat, doubling time 6 h
[11] = wild type E. coli NCM3722, growth: N-lim chemostat, doubling time 12 h
[12] = wild type E. coli NCM3722, growth: P-lim chemostat, doubling time 12 h

With “MTWLPLNPIPLKDRVSMIFLQYGQIDVIDGAFVLIDKTGIRTHIPVGSVACIMLEPGTRVSHAAVRLAAQVGTLLVWVGEAGVRVYASGQPGGARSDKLLYQAKLALDEDLRLKVVRKMFELRFGEPAPARRSVEQLRGIEGSRVRATYALLAKQYGVTWNGRRYDPKDWEKGDTINQCISAATSCLYGVTEAAILAAGYAPAIGFVHTGKPLSFVYDIADIIKFDTVVPKAFEIARRNPGEPDREVRLACRDIFRSSKTLAKLIPLIEDVLAAGEIQPPAPPEDAQPVAIPLPVSLGDAGHRSS” the “total protein half-life in vivo” value [1] was 4.85 ± 0.84 h, the “total protein half-life in vivo” value [2] was 1.32 ± 0.25 h and the “total protein half-life in vivo” value [3] was 3.48 h. The “total protein half-life in vivo” value [4] was 3.62 ± 1.9 h, the “total protein half-life in vivo” value [5] was 5.4 h and the “total protein half-life in vivo” value [6] was 1.32 h. The “total protein half-life in vivo” value [7] was 2.23 h.
For “MMRIALFLLTNLAVMVVFGLVLSLTGIQSSSVQGLMIMALLFGFGGSFVSLLMSKWMALRSVGGEVIEQPRNERERWLVNTVATQARQAGIAMPQVAIYHAPDINAFATGARRDASLVAVSTGLLQNMSPDEAEAVIAHEISHIANGDMVTMTLIQGVVNTFVIFISRILAQLAAGFMGGNRDEGEESNGNPLIYFAVATVLELVFGILASIITMWFSRHREFHADAGSAKLVGREKMIAALQRLKTSYEPQEATSMMALCINGKSKSLSELFMTHPPLDKRIEALRTGEYLK”, the “total protein half-life in vivo” value [1] was 4.24 ± 0.051 h, the “total protein half-life in vivo” value [8] was 5.6 ± 0.59 h and the “total protein half-life in vivo” value [9] was 5.25 ± 0.11 h. For the same sequence, the “total protein half-life in vivo” value [10] was 4.77 ± 0.29 h, the “total protein half-life in vivo” value [2] was 4.77 ± 0.48 h and the “total protein half-life in vivo” value [3] was 2.45 ± 0.076 h. The “total protein half-life in vivo” value [4] was 4.83 ± 0.3 h, the “total protein half-life in vivo” value [5] was 8.92 ± 1.5 h and the “total protein half-life in vivo” value [6] was 5.48 ± 0.92 h. For the same sequence, the “total protein half-life in vivo” value [11] was 10.5 ± 1.2 h, the “total protein half-life in vivo” value [7] was 4.81 ± 0.22 h and the “total protein half-life in vivo” value [12] was 7.97 ± 0.28 h.
With “MRFSHRLFLLLILLLTGAPILAQEPSDVAKNVRMMVSGIVSYTRWPALSGPPKLCIFSSSRFSTALQENAATSLPYLPVIIHTQQEAMISGCNGFYFGNESPTFQMELTEQYPSKALLLIAEQNTECIIGSAFCLIIHNNDVRFAVNLDALSRSGVKVNPDVLMLARKKNDG” the “total protein half-life in vivo” value [1] was 3.28 ± 0.12 h, the “total protein half-life in vivo” value [9] was 2.98 ± 0.17 h and the “total protein half-life in vivo” value [2] was 3.1 h. The “total protein half-life in vivo” value [4] was over 8 h, the “total protein half-life in vivo” value [5] was 6.32 h and the “total protein half-life in vivo” value [6] was 2.98 h. The “total protein half-life in vivo” value [11] was 4.75 h, the “total protein half-life in vivo” value [7] was 5 h and the “total protein half-life in vivo” value [12] was 6.03 ± 0.098 h.
For “MSKTIATENAPAAIGPYVQGVDLGNMIITSGQIPVNPKTGEVPADVAAQARQSLDNVKAIVEAAGLKVGDIVKTTVFVKDLNDFATVNATYEAFFTEHNATFPARSCVEVARLPKDVKIEIEAIAVRR [P0AF93]”, the “total protein half-life in vivo” value [1] was 6.26 ± 0.82 h, the “total protein half-life in vivo” value [8] was 5.12 ± 0.65 h and the “total protein half-life in vivo” value [9] was 5.28 ± 0.082 h. The “total protein half-life in vivo” value [10] was 5.91 ± 0.21 h, the “total protein half-life in vivo” value [2] was 5.15 ± 0.68 h and the “total protein half-life in vivo” value [3] was 3.16 ± 0.28 h. The “total protein half-life in vivo” value [4] was 5.56 ± 0.15 h, the “total protein half-life in vivo” value [5] was 10.8 ± 1.1 h and the “total protein half-life in vivo” value [6] was 4.88 ± 0.16 h. For the same sequence, the “total protein half-life in vivo” value [11] was 8.99 ± 0.37 h, the “total protein half-life in vivo” value [7] was 5.694 ± 0.0093 h and the “total protein half-life in vivo” value [12] was 12.8 ± 0.61 h.
For “MKTKVILSQQMASAIIAAGQEEAQKNNWSVSIAVADDGGHLLALSRMDDCAPIAAYISQEKARTAALGRRETKGYEEMVNNGRTAFVTAPLLTSLEGGVPVVVDGQIIGAVGVSGLTGAQDAQVAKAAAAVLAK [P0AEQ1]”, the “total protein half-life in vivo” value [1] was 4.93 ± 0.46 h, the “total protein half-life in vivo” value [8] was 4.12 ± 0.23 h and the “total protein half-life in vivo” value [10] was 4.27 ± 0.26 h. The “total protein half-life in vivo” value [2] was 4.21 ± 0.32 h, the “total protein half-life in vivo” value [3] was 3.04 ± 0.057 h and the “total protein half-life in vivo” value [4] was 5.267 ± 0.02 h. For the same sequence, the “total protein half-life in vivo” value [5] was 9.62 ± 0.24 h, the “total protein half-life in vivo” value [6] was 4.29 ± 0.12 h and the “total protein half-life in vivo” value [11] was 5.98 h. For the same sequence, the “total protein half-life in vivo” value [7] was 5.43 ± 0.44 h and the “total protein half-life in vivo” value [12] was 11.6 ± 0.93 h.
With “MLSRRGHRLSRFRKNKRRLRERLRQRIFFRDKVVPEAMEKPRVLVLTGAGISAESGIRTFRAADGLWEEHRVEDVATPEGFDRDPELVQAFYNARRRQLQQPEIQPNAAHLALAKLQDALGDRFLLVTQNIDNLHERAGNTNVIHMHGELLKVRCSQSGQVLDWTGDVTPEDKCHCCQFPAPLRPHVVWFGEMPLGMDEIYMALSMADIFIAIGTSGHVYPAAGFVHEAKLHGAHTVELNLEPSQVGNEFAEKYYGPASQVVPEFVEKLLKGLKAGSIA” the “total protein half-life in vivo” value [1] was 5.1 ± 0.51 h, the “total protein half-life in vivo” value [8] was 4.14 ± 0.054 h and the “total protein half-life in vivo” value [9] was 4.03 ± 0.65 h. The “total protein half-life in vivo” value [10] was 5.77 ± 0.77 h, the “total protein half-life in vivo” value [2] was 4.15 ± 0.36 h and the “total protein half-life in vivo” value [3] was 2.64 ± 0.21 h. For the same sequence, the “total protein half-life in vivo” value [4] was 4.79 ± 0.29 h, the “total protein half-life in vivo” value [5] was 10.2 ± 0.35 h and the “total protein half-life in vivo” value [6] was 4.37 ± 0.24 h. The “total protein half-life in vivo” value [11] was 7.71 ± 0.99 h, the “total protein half-life in vivo” value [7] was 5.56 ± 0.39 h and the “total protein half-life in vivo” value [12] was 10.5 ± 1.2 h.
In the case of “MSLSRRQFIQASGIALCAGAVPLKASAAGQQQPLPVPPLLESRRGQPLFMTVQRAHWSFTPGTRASVWGINGRYLGPTIRVWKGDDVKLIYSNRLTENVSMTVAGLQVPGPLMGGPARMMSPNADWAPVLPIRQNAATLWYHANTPNRTAQQVYNGLAGMWLVEDEVSKSLPIPNHYGVDDFPVIIQDKRLDNFGTPEYNEPGSGGFVGDTLLVNGVQSPYVEVSRGWVRLRLLNASNSRRYQLQMNDGRPLHVISGDQGFLPAPVSVKQLSLAPGERREILVDMSNGDEVSITCGEAASIVDRIRGFFEPSSILVSTLVLTLRPTGLLPLVTDSLPMRLLPTEIMAGSPIRSRDISLGDDPGINGQLWDVNRIDVTAQQGTWERWTVRADEPQAFHIEGVMFQIRNVNGAMPFPEDRGWKDTVWVDGQVELLVYFGQPSWAHFPFYFNSQTLEMADRGSIGQLLVNPVP”, the “total protein half-life in vivo” value [1] is reported as 6.39 ± 0.28 h, the “total protein half-life in vivo” value [8] is reported as 6.3 ± 0.19 h and the “total protein half-life in vivo” value [9] is reported as 6.17 ± 0.57 h. For the same sequence, the “total protein half-life in vivo” value [10] was 6.21 ± 0.34 h, the “total protein half-life in vivo” value [2] was 6.12 ± 0.66 h and the “total protein half-life in vivo” value [3] was 3.28 ± 0.037 h. For the same sequence, the “total protein half-life in vivo” value [4] was 6.047 ± 0.037 h, the “total protein half-life in vivo” value [5] was 11.19 ± 0.06 h and the “total protein half-life in vivo” value [6] was 6.13 ± 0.41 h. The “total protein half-life in vivo” value [11] was 13.5 ± 0.45 h, the “total protein half-life in vivo” value [7] was 5.88 ± 0.35 h and the “total protein half-life in vivo” value [12] was 12.5 ± 0.35 h.

Source: the supplement of paper PMC11246515
